Two molecules from patent US20180118841A1 can be followed below.

Numbering of substitutions follows the chain as printed.

Test [1] has as its target OX40 human/mouse chimera 1544 (human; mouse) (UniProt P47741). Description: FACS, 293-F transfectants; MFI/isotype control.
The target of test [2] is CD137 human/mouse chimera 1550 (human; mouse) (UniProt P20334). Description: FACS, 293-F transfectants; MFI/isotype, normalized to full-length CD137.
Chain of CD137 human/mouse chimera 1550 (human; mouse) (P20334 other isoform, or with tags, fused parts or gaps mutant limits assumed): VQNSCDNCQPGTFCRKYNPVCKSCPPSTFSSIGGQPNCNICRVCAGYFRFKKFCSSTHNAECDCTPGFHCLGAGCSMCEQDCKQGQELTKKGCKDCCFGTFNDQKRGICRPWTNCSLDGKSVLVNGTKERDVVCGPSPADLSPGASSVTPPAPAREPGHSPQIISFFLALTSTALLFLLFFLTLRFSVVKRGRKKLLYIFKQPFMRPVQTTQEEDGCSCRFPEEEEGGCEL

Chain of OX40 human/mouse chimera 1544 (human; mouse) (P47741 other isoform, or with tags, fused parts or gaps mutant limits assumed): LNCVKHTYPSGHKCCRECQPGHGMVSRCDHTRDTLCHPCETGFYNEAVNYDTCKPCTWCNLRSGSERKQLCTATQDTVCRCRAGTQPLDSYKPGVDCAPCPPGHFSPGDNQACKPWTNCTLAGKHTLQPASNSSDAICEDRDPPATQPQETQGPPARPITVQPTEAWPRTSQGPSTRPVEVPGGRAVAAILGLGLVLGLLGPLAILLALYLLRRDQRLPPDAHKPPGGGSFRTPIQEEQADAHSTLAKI

B1: anti-OX40 antibody 1170/1171 (antibody, V domains shown)
VH: EVQLLESGGGLVQPGGSLRLSCAASGFTFGGYYMSWVRQAPGKGLEWVSYIPGSGGSTYYADSVKGRFTISRDNSKNTLYLQMNSLRAEDTAVYYCARYDYYWMDYWGQGTLVTVSS
VL: DIQMTQSPSSLSASVGDRVTITCRASQSISSYLNWYQQKPGKAPKLLIYAASSLQSGVPSRFSGSGSGTDFTLTISSLQPEDFATYYCQQGHGSYPHTFGQGTKLEIK
In test [1], B1 had a relative MFI of 2.

B2: anti-CD137 antibody 1204/1205 (antibody, IgG1, V domains shown)
VH: EVQLLESGGGLVQPGGSLRLSCAASGFTFSSYYMGWVRQAPGKGLEWVSGIGSYYGYTGYADSVKGRFTISRDNSKNTLYLQMNSLRAEDTAVYYCARAYYDYNYYYAYFDYWGQGTLVTVSS
VL: B1 VL with G91S, H92V, G93P, S94H, H97F
On to B2, for which the relative binding in test [2] was found to be 0.07.
